In patent publication US11299515B2, “Optimized peptides for targeting human nerves and their use in image guided surgery, diagnostics and therapeutic” (The Regents of the University of California, priority 2017, dated 2022):
Entries after “also recorded” stand apart in the source; their conditions may differ. Residues, ends and D or L forms follow the SMILES beside them. *: point of attachment. Fluorescein(5-Mal) = O=C1OC2(c3ccc(O)cc3Oc3cc(O)ccc32)c2ccc(N3C(=O)CC(*)C3=O)cc21

Key:
[1] = in vivo; conditions: male, SKH, mouse, whole blood, iv, 100 nmol
Protocol: Five 8-week-old SKH male mice were injected intravenously with 100 nmol [10.75 mg/kg for 25 gm mouse] of FAM-HNP401 in 100 μl of sterile water. Prior to blood draw mice were anesthetized with a 1:1 cocktail of ketamine: midazolam. Tail pricks were performed at 1 min, 10 min, 20 min, 30 min, 1 hr, and 2 hrs after injection to collect 5 μl whole blood which was dissolved in 100 μl Agilent ICP-MS tuning buffer. Samples were centrifuged and equal volume of supernatants were analyzed using a Tecan fluorescence plate reader.

[2] = Stability in ex-vivo human plasma (LC-MS); conditions: 37° C., 5 min vs 2 hours
Protocol: An equal volume of 1:1 acetonitrile:water with 2% acetic acid is added to precipitate the protein matter, supernatant is extracted for analysis by LC-MS on a C18 reverse phase column with gradient of 9:1 H2O+0.05% TFA:Acetonitrile+0.05% TFA to 1:9 H2O+0.05% TFA:Acetonitrile+0.05% TFA in 20 min.
The bladder was drained with a syringe and sutured to avoid spillage and contamination around prostate. […] Stability of FAM-HNP401 in human plasma at 5 minutes and 2 hours was determined by incubation of peptide dye conjugate in human serum prior to analysis by mass spectrometry.

[3] = system: human laryngeal nerve; experiment: Dose response by topical application on human laryngeal nerve sections; format: binding
Protocol: FIG. 25: Differential binding of nerve binding peptides to human and mouse tissue. Determination of optimal dose response by topical application of FAM-HNP401 on human laryngeal nerve sections at final concentration of 375 μM (A), 100 μM (B), 50 μM (C), 10 μM (D) and 1 μM (E), imaged with confocal microscopy with identical parameters and levelled equally for comparison. ** brightened 2 fold for viewing. Nerve to muscle contrast at high concentration of 375 μM for FAM-NP41 (F and G) and FAM-HNP401 (H and I) imaged on confocal microscopy and levelled for direct comparison. Mouse facial nerve (red arrows) with surrounding muscle treated with 375 μM (J), 100 μM (K) of FAM-NP41 or 375 μM (L), 100 μM (M) of FAMHNP401.
Dose response data set of FAM-HNP401 on human nerve tissue (FIG. 25:A-E) was acquired with 488 nm laser line, 10μm sections on glass at 10× magnification, 0.45 NA air objective lens. Gain set to 40, power set to 3% of laser power, pixel dwell value of 1.2 μs, aperture size of 1.1 μm and a pixel size of 0.3 μm/px with a 2 k by 2 k size image.
Human sural nerve, antebrachial nerve and laryngeal nerve and temporalis muscle were obtained under IRB protocol number 130837 for Dr. Quyen Nguyen. Human peripheral nerves (typically sural) were obtained from patients undergoing nerve resection procedures. […]

[4] = system: autonomic (cavernosal) nerves from human prostate gland; experiment: Topical application on autonomic nerves from human prostate gland; format: binding; conditions: 100 μM topical, two patients
Protocol: FAM-HNP401 and FAM-NP41 were then tested topically for binding to autonomic nerves, isolated from excised prostate glands of two human patients (FIGS. 12 and 13). […] Labelled fiber were confirmed as nerve using anti-neurofilament antibody SMI312 (red) and DAPI (blue) to show nuclear labeling (FIG. 12C). H&E staining was also done to confirm label tissue as nerve (FIG. 12D). Similar staining was obtained for peripheral sensory anti-brachial cutaneous nerve isolated from a human arm (FIGS. 12E-H).
FAM-HNP401 and FAM-NP41 were tested for binding to autonomic nerves, isolated from the prostate glands of two human patients (FIGS. 19 and 29). […] Quantitation was not done because only 2 patient samples were available for testing as nerve resection during radical prostatectomy is only performed in instances of gross capsular invasion. Labelled fibers were confirmed as nerve using anti-neurofilament antibody SMI312 (red) with DAPI (blue) to show nuclear labeling (FIG. 19C). H&E staining also confirmed label tissue as nerve by histology (FIG. 19D). […] Similar staining using FAM-HNP401 was obtained for another sensory nerve (anti-brachial cutaneous) isolated from human arm showing the broad nerve binding activity of HNP401 (FIGS. 19E-H).
Human sural nerve, antebrachial nerve and laryngeal nerve and temporalis muscle were obtained under IRB protocol number 130837 for Dr. Quyen Nguyen. […]

[5] = Mass spectroscopy analysis of urine after injection of nerve binding peptides

CC(=O)N[C@@H](CO)C(=O)NCC(=O)N[C@@H](CCC(N)=O)C(=O)N[C@H](C(=O)N1CCC[C@H]1C(=O)N[C@@H](Cc1c[nH]c2ccccc12)C(=O)N[C@@H](CCC(=O)O)C(=O)N[C@@H](CCC(=O)O)C(=O)N1CCC[C@H]1C(=O)N[C@@H](Cc1ccc(O)cc1)C(=O)N[C@@H](Cc1ccc(O)cc1)C(=O)N[C@H](C(=O)N[C@H](C(=O)N[C@@H](CCCCN)C(=O)N[C@@H](CCCCN)C(=O)N[C@@H](CO)C(=O)N[C@@H](CO)C(=O)NCC(=O)NCC(=O)N[C@@H](CSC1CC(=O)N(c2ccc3c(c2)C(=O)OC32c3ccc(O)cc3Oc3cc(O)ccc32)C1=O)C(N)=O)C(C)C)C(C)C)C(C)C (stereo partly drawn) [FAM-HNP401] (Ac-SGQVPWEEPYYVVKKSSGGC(Fluorescein(5-Mal))-NH2; N-terminus and C-terminus assumed)
half-life [1]: 30 min | stability in human plasma [2]: remain intact at 2 hours; also recorded: stable | concentration giving optimal nerve contrast ([3]; topical 1 to 375 μM): 50 to 100 µM | concentration at which signal from human nerve saturates ([3]; topical up to 375 μM): ≤ 100 µM | fluorescent signal in human autonomic nerves compared to FAM-NP41 [4]: significantly higher fluorescent signal | metabolism (species detected in urine) [5]: partially metabolized
